Results taken from paper PMC10397247.

Key:
[1] = molecular target: T1, 4H584-bA; assay: two-hybrid library CCNG1;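 also: natural log of median RNA to DNA barcode read ratio; higher means stronger binding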
T1 chain: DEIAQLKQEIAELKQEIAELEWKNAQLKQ

[2] = molecular target: T2, 4H906-bA; assay: two-hybrid library CCNG1;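 also: natural log of median RNA to DNA barcode read ratio; higher means stronger binding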
T2 chain: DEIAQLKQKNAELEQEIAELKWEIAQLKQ

[3] = molecular target: T3, 4H850-bA; assay: two-hybrid library CCNG1;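 also: natural log of median RNA to DNA barcode read ratio; higher means stronger binding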
T3 chain: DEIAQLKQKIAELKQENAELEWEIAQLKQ

[4] = molecular target: T4, P11A; assay: two-hybrid library CCNG1;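 also: natural log of median RNA to DNA barcode read ratio; higher means stronger binding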
T4 chain: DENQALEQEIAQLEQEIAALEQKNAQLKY

[5] = molecular target: T5, 4H3172-bA; assay: two-hybrid library CCNG1;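 also: natural log of median RNA to DNA barcode read ratio; higher means stronger binding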
T5 chain: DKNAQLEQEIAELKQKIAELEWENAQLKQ

[6] = molecular target: T6, 4H3631-bA; assay: two-hybrid library CCNG1;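 also: natural log of median RNA to DNA barcode read ratio; higher means stronger binding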
T6 chain: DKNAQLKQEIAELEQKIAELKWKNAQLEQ

[7] = molecular target: T7, 4H3974-bA; assay: two-hybrid library CCNG1
T7 chain: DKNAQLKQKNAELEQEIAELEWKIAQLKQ

[8] = molecular target: T8, 4H3638-bA; assay: two-hybrid library CCNG1
T8 chain: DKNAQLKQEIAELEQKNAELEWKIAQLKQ

[9] = molecular target: T9, 4H570-bA; assay: two-hybrid library CCNG1
T9 chain: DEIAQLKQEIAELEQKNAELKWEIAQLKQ

[10] = molecular target: T10, 4H3414-bA; assay: two-hybrid library CCNG1
T10 chain: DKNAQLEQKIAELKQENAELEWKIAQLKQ

[11] = molecular target: T11, 4H3817-bA; assay: two-hybrid library CCNG1
T11 chain: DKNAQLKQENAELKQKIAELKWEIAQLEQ

[12] = molecular target: T12, 4H3129-bA; assay: two-hybrid library CCNG1
T12 chain: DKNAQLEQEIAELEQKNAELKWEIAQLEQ

[13] = molecular target: T13, 4H619-bA; assay: two-hybrid library CCNG1
T13 chain: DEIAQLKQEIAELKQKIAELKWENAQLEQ

[14] = molecular target: T14, 4H2649-AA; assay: two-hybrid library CCmax; conditions: mean of both orientations
T14 chain: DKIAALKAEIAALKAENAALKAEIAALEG

[15] = molecular target: T15, 4H2162-AA; assay: two-hybrid library CCmax; conditions: mean of both orientations
T15 chain: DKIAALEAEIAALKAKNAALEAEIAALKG

[16] = molecular target: T16, 4H2253-AA; assay: two-hybrid library CCmax; conditions: mean of both orientations
T16 chain: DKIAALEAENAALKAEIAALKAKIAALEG

[17] = molecular target: T17, 4H1626-AA; assay: two-hybrid library CCmax; conditions: mean of both orientations
T17 chain: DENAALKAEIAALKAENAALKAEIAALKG

[18] = molecular target: T18, 4H3865-AA; assay: two-hybrid library CCmax; conditions: mean of both orientations
T18 chain: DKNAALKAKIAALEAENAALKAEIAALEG

[19] = molecular target: T19, 4H3016-AA; assay: two-hybrid library CCmax; conditions: mean of both orientations
T19 chain: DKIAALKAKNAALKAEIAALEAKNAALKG

[20] = molecular target: T20, 4H3753-AA; assay: two-hybrid library CCmax; conditions: mean of both orientations
T20 chain: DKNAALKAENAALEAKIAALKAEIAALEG

[21] = molecular target: T21, 4H3697-AA; assay: two-hybrid library CCmax; conditions: mean of both orientations
T21 chain: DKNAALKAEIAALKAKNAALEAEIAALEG

[22] = molecular target: T22, 4H458-AA; assay: two-hybrid library CCmax; conditions: mean of both orientations
T22 chain: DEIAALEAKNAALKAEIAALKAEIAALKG

[23] = molecular target: T23, 4H891-AA; assay: two-hybrid library CCmax; conditions: mean of both orientations
T23 chain: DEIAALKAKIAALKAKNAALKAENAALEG

[24] = molecular target: T24, 4H1842-AA; assay: two-hybrid library CCmax; conditions: mean of both orientations
T24 chain: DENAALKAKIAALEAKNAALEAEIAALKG

[25] = molecular target: T25, 4H570-AA; assay: two-hybrid library CCmax; conditions: mean of both orientations
T25 chain: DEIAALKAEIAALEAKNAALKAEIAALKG

[26] = molecular target: T26, 4H3120-AA; assay: two-hybrid library CCmax; conditions: mean of both orientations
T26 chain: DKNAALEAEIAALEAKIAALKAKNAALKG

[27] = molecular target: T27, 4H2725-AA; assay: two-hybrid library CCmax; conditions: mean of both orientations
T27 chain: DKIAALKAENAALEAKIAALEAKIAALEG

[28] = molecular target: T28, 4H1597-AA; assay: two-hybrid library CCmax; conditions: mean of both orientations
T28 chain: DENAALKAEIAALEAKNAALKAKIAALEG

[29] = molecular target: T29, 4H3130-AA; assay: two-hybrid library CCmax; conditions: mean of both orientations
T29 chain: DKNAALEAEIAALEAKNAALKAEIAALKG

[30] = molecular target: T30, 4H3009-AA; assay: two-hybrid library CCmax; conditions: mean of both orientations
T30 chain: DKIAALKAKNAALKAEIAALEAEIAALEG

[31] = molecular target: T31, 4H930-AA; assay: two-hybrid library CCmax; conditions: mean of both orientations
T31 chain: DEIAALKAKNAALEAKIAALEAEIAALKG

[32] = molecular target: T32, 4H909-AA; assay: two-hybrid library CCmax; conditions: mean of both orientations
T32 chain: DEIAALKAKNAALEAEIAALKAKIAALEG

[33] = molecular target: T33, 4H2389-AA; assay: two-hybrid library CCmax; conditions: mean of both orientations
T33 chain: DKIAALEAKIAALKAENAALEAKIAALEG

[34] = molecular target: T34, 4H2473-AA; assay: two-hybrid library CCmax; conditions: mean of both orientations
T34 chain: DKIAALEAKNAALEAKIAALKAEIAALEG

[35] = molecular target: T35, 4H2330-AA; assay: two-hybrid library CCmax; conditions: mean of both orientations
T35 chain: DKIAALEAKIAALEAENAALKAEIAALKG

[36] = molecular target: T36, 4H797-AA; assay: two-hybrid library CCmax; conditions: mean of both orientations
T36 chain: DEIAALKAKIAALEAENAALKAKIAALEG

[37] = molecular target: T37, 4H3165-AA; assay: two-hybrid library CCmax; conditions: mean of both orientations
T37 chain: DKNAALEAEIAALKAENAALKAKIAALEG

[38] = molecular target: T38, 4H2274-AA; assay: two-hybrid library CCmax; conditions: mean of both orientations
T38 chain: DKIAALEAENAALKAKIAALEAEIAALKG

[39] = molecular target: T39, 4H485-AA; assay: two-hybrid library CCmax; conditions: mean of both orientations
T39 chain: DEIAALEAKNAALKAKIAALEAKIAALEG

[40] = molecular target: T40, 4H2698-AA; assay: two-hybrid library CCmax; conditions: mean of both orientations
T40 chain: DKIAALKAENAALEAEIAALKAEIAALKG

[41] = molecular target: T41, 4H629-AA; assay: two-hybrid library CCmax; conditions: mean of both orientations
T41 chain: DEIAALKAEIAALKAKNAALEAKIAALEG

[42] = molecular target: T42, 4H2109-AA; assay: two-hybrid library CCmax; conditions: mean of both orientations
T42 chain: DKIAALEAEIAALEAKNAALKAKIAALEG

[43] = molecular target: T43, 4H174-AA; assay: two-hybrid library CCmax; conditions: mean of both orientations
T43 chain: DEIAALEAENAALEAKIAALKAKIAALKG

[44] = molecular target: T44, 4H2865-AA; assay: two-hybrid library CCmax; conditions: mean of both orientations
T44 chain: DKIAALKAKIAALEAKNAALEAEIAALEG

[45] = molecular target: T45, 4H1877-AA; assay: two-hybrid library CCmax; conditions: mean of both orientations
T45 chain: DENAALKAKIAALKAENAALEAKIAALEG

[46] = molecular target: T46, 4H3410-AA; assay: two-hybrid library CCmax; conditions: mean of both orientations
T46 chain: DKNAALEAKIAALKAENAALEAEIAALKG

[47] = molecular target: T47, 4H3590-AA; assay: two-hybrid library CCmax; conditions: mean of both orientations
T47 chain: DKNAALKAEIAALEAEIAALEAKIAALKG

[48] = molecular target: T48, 4H745-AA; assay: two-hybrid library CCmax; conditions: mean of both orientations
T48 chain: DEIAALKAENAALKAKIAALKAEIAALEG

[49] = molecular target: T49, 4H94-AA; assay: two-hybrid library CCmax; conditions: mean of both orientations
T49 chain: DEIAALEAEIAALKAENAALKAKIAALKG

[50] = molecular target: T50, 4H1579-AA; assay: two-hybrid library CCmax; conditions: mean of both orientations
T50 chain: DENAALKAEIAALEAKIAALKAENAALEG

[51] = molecular target: T51, 4H1478-AA; assay: two-hybrid library CCmax
T51 chain: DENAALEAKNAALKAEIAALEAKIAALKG

[52] = molecular target: T52, 4H1864-AA; assay: two-hybrid library CCmax; conditions: mean of both orientations
T52 chain: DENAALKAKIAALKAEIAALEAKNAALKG

[53] = molecular target: T53, 4H3381-AA; assay: two-hybrid library CCmax; conditions: mean of both orientations
T53 chain: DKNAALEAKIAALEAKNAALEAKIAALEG

[54] = molecular target: T54, 4H171-AA; assay: two-hybrid library CCmax; conditions: mean of both orientations
T54 chain: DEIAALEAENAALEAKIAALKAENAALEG

[55] = molecular target: T55, 4H710-AA; assay: two-hybrid library CCmax
T55 chain: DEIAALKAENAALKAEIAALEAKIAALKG

[56] = molecular target: T56, 4H3395-AA; assay: two-hybrid library CCmax; conditions: mean of both orientations
T56 chain: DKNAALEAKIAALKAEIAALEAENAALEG

[57] = molecular target: T57, 4H850-AA; assay: two-hybrid library CCmax; conditions: mean of both orientations
T57 chain: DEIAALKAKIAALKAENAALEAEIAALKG

[58] = molecular target: T58, 4H536-AA; assay: two-hybrid library CCmax; conditions: mean of both orientations
T58 chain: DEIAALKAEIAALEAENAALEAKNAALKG

[59] = molecular target: T59, 4H2438-AA; assay: two-hybrid library CCmax; conditions: mean of both orientations
T59 chain: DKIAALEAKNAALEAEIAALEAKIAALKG

[60] = molecular target: T60, 4H310-AA; assay: two-hybrid library CCmax; conditions: mean of both orientations
T60 chain: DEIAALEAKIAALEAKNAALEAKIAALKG

B1: 4H3129-bA (peptide)
chain: DKNAQLEQEIAELEQKNAELKWEIAQLEQ
interaction score [1]: -1.75 | interaction score [2]: -0.839 | interaction score [3]: 0.0228 | interaction score [4]: 0.0953 | interaction score [5]: -1.38 | interaction score [6]: -0.762 | interaction score [7]: -0.932 | interaction score [8]: 0 | interaction score [9]: -1.13 | interaction score [10]: 2.61 | interaction score [11]: -0.661 | interaction score [12]: -0.78 | interaction score [13]: -1.59

B2: 4H1478-AA (peptide)
chain: DENAALEAKNAALKAEIAALEAKIAALKG
interaction score [14]: -1.48 | interaction score [15]: -1.13 | interaction score [16]: -0.889 | interaction score [17]: -1.52 | interaction score [18]: -1.31 | interaction score [19]: -1.29 | interaction score [20]: 2.25 | interaction score [21]: -1.54 | interaction score [22]: -0.241 | interaction score [23]: -1.45 | interaction score [24]: -1.06 | interaction score [25]: -1.51 | interaction score [26]: -0.624 | interaction score [27]: 1.78 | interaction score [28]: -0.494 | interaction score [29]: -0.211 | interaction score [30]: 0.472 | interaction score [31]: -0.754 | interaction score [32]: -0.497 | interaction score [33]: 0.0289 | interaction score [34]: 2.04 | interaction score [35]: -1.56 | interaction score [36]: -1.28 | interaction score [37]: -1.68 | interaction score [38]: -0.761 | interaction score [39]: -0.796 | interaction score [40]: 1.64 | interaction score [41]: -1.23 | interaction score [42]: -0.882 | interaction score [43]: 1.4 | interaction score [44]: -1.39 | interaction score [45]: -0.558 | interaction score [46]: -1 | interaction score [47]: 0.946 | interaction score [48]: 2.14 | interaction score [49]: -1.45 | interaction score [50]: -0.103 | interaction score [51]: 0.0991 | interaction score [52]: 1.68 | interaction score [53]: -1.47 | interaction score [54]: 0.9 | interaction score [55]: -0.15 | interaction score [56]: 1.1 | interaction score [57]: 0.0104 | interaction score [58]: -1.16 | interaction score [59]: -0.717 | interaction score [60]: -0.927
